Patent US20230203108

T1: Recombinant Human Serpin B9/SERPINB9 (C-6His) (Novoprotein, CJ32), P50453
T1 chain: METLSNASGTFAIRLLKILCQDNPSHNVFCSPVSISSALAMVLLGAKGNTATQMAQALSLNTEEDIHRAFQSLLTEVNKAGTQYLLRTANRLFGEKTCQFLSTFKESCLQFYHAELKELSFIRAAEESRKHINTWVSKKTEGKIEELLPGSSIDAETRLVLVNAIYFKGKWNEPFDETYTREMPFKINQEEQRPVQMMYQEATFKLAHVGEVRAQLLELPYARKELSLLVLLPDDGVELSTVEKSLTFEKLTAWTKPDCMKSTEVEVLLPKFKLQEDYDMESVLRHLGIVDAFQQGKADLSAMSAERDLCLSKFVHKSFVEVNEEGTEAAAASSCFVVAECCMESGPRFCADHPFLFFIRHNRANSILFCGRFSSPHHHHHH


Molecular target: T1, Recombinant Human Serpin B9/SERPINB9 …

Row | Protein | protease activity (cleavage of Ac-IEPD-pNA, absorbance at 405 nm) after 1 h at 37 C with 0.5 uM PI-9, relative to wild-type granzyme B
1 | granzyme B variant K44F, L46E, K155P, K172L, S175I, K200R (protein) IIGGHEAKPHSRPYMAYLMIWDQFSEKRCGGFLIRDDFVLTAAHCWGSSINVTLGAHNIKEQEPTQQFIPVKRPIPHPAYNPKNFSNDIMLLQLERKAKRTRAVQPLRLPSNKAQVKPGQTCSVAGWGQTAPLGPHSHTLQEVKMTVQEDRLCEIDLRHYYDSTIELCVGDPEIKKTSFRGDSGGPLVCNKVAQGIVSYGRNNGMPPRACTKVSSFVHWIKKTMKRY | the variants maintained high protease activity even in the presence of inhibitors
2 | granzyme B variant K44F, L46F, K155P, K172L, S175I, K200R (protein) IIGGHEAKPHSRPYMAYLMIWDQFSFKRCGGFLIRDDFVLTAAHCWGSSINVTLGAHNIKEQEPTQQFIPVKRPIPHPAYNPKNFSNDIMLLQLERKAKRTRAVQPLRLPSNKAQVKPGQTCSVAGWGQTAPLGPHSHTLQEVKMTVQEDRLCEIDLRHYYDSTIELCVGDPEIKKTSFRGDSGGPLVCNKVAQGIVSYGRNNGMPPRACTKVSSFVHWIKKTMKRY | the variants maintained high protease activity even in the presence of inhibitors
3 | granzyme B variant K44F, L46Q, K155P, K172L, S175I, K200R (protein) IIGGHEAKPHSRPYMAYLMIWDQFSQKRCGGFLIRDDFVLTAAHCWGSSINVTLGAHNIKEQEPTQQFIPVKRPIPHPAYNPKNFSNDIMLLQLERKAKRTRAVQPLRLPSNKAQVKPGQTCSVAGWGQTAPLGPHSHTLQEVKMTVQEDRLCEIDLRHYYDSTIELCVGDPEIKKTSFRGDSGGPLVCNKVAQGIVSYGRNNGMPPRACTKVSSFVHWIKKTMKRY | the variants maintained high protease activity even in the presence of inhibitors
4 | granzyme B variant K44L, R48K, K155P, K172L, S175I, K200R (protein) IIGGHEAKPHSRPYMAYLMIWDQLSLKKCGGFLIRDDFVLTAAHCWGSSINVTLGAHNIKEQEPTQQFIPVKRPIPHPAYNPKNFSNDIMLLQLERKAKRTRAVQPLRLPSNKAQVKPGQTCSVAGWGQTAPLGPHSHTLQEVKMTVQEDRLCEIDLRHYYDSTIELCVGDPEIKKTSFRGDSGGPLVCNKVAQGIVSYGRNNGMPPRACTKVSSFVHWIKKTMKRY | the variants maintained high protease activity even in the presence of inhibitors
5 | granzyme B variant K44L, R48E, K155P, K172L, S175I, K200R (protein) IIGGHEAKPHSRPYMAYLMIWDQLSLKECGGFLIRDDFVLTAAHCWGSSINVTLGAHNIKEQEPTQQFIPVKRPIPHPAYNPKNFSNDIMLLQLERKAKRTRAVQPLRLPSNKAQVKPGQTCSVAGWGQTAPLGPHSHTLQEVKMTVQEDRLCEIDLRHYYDSTIELCVGDPEIKKTSFRGDSGGPLVCNKVAQGIVSYGRNNGMPPRACTKVSSFVHWIKKTMKRY | the variants maintained high protease activity even in the presence of inhibitors
6 | granzyme B variant K44F, R48K, K155P, K172L, S175I, K200R (protein) IIGGHEAKPHSRPYMAYLMIWDQFSLKKCGGFLIRDDFVLTAAHCWGSSINVTLGAHNIKEQEPTQQFIPVKRPIPHPAYNPKNFSNDIMLLQLERKAKRTRAVQPLRLPSNKAQVKPGQTCSVAGWGQTAPLGPHSHTLQEVKMTVQEDRLCEIDLRHYYDSTIELCVGDPEIKKTSFRGDSGGPLVCNKVAQGIVSYGRNNGMPPRACTKVSSFVHWIKKTMKRY | the variants maintained high protease activity even in the presence of inhibitors
7 | granzyme B variant K44F, R48E, K155P, K172L, S175I, K200R (protein) IIGGHEAKPHSRPYMAYLMIWDQFSLKECGGFLIRDDFVLTAAHCWGSSINVTLGAHNIKEQEPTQQFIPVKRPIPHPAYNPKNFSNDIMLLQLERKAKRTRAVQPLRLPSNKAQVKPGQTCSVAGWGQTAPLGPHSHTLQEVKMTVQEDRLCEIDLRHYYDSTIELCVGDPEIKKTSFRGDSGGPLVCNKVAQGIVSYGRNNGMPPRACTKVSSFVHWIKKTMKRY | the variants maintained high protease activity even in the presence of inhibitors
8 | granzyme B variant K44L, L46I, K155P, K172L, S175I, K200R (protein) IIGGHEAKPHSRPYMAYLMIWDQLSIKRCGGFLIRDDFVLTAAHCWGSSINVTLGAHNIKEQEPTQQFIPVKRPIPHPAYNPKNFSNDIMLLQLERKAKRTRAVQPLRLPSNKAQVKPGQTCSVAGWGQTAPLGPHSHTLQEVKMTVQEDRLCEIDLRHYYDSTIELCVGDPEIKKTSFRGDSGGPLVCNKVAQGIVSYGRNNGMPPRACTKVSSFVHWIKKTMKRY | the variants maintained high protease activity even in the presence of inhibitors
9 | granzyme B variant K44L, L46E, K155P, K172L, S175I, K200R (protein) IIGGHEAKPHSRPYMAYLMIWDQLSEKRCGGFLIRDDFVLTAAHCWGSSINVTLGAHNIKEQEPTQQFIPVKRPIPHPAYNPKNFSNDIMLLQLERKAKRTRAVQPLRLPSNKAQVKPGQTCSVAGWGQTAPLGPHSHTLQEVKMTVQEDRLCEIDLRHYYDSTIELCVGDPEIKKTSFRGDSGGPLVCNKVAQGIVSYGRNNGMPPRACTKVSSFVHWIKKTMKRY | the variants maintained high protease activity even in the presence of inhibitors
10 | granzyme B variant K44L, L46F, K155P, K172L, S175I, K200R (protein) IIGGHEAKPHSRPYMAYLMIWDQLSFKRCGGFLIRDDFVLTAAHCWGSSINVTLGAHNIKEQEPTQQFIPVKRPIPHPAYNPKNFSNDIMLLQLERKAKRTRAVQPLRLPSNKAQVKPGQTCSVAGWGQTAPLGPHSHTLQEVKMTVQEDRLCEIDLRHYYDSTIELCVGDPEIKKTSFRGDSGGPLVCNKVAQGIVSYGRNNGMPPRACTKVSSFVHWIKKTMKRY | the variants maintained high protease activity even in the presence of inhibitors
11 | granzyme B variant K44L, L46Q, K155P, K172L, S175I, K200R (protein) IIGGHEAKPHSRPYMAYLMIWDQLSQKRCGGFLIRDDFVLTAAHCWGSSINVTLGAHNIKEQEPTQQFIPVKRPIPHPAYNPKNFSNDIMLLQLERKAKRTRAVQPLRLPSNKAQVKPGQTCSVAGWGQTAPLGPHSHTLQEVKMTVQEDRLCEIDLRHYYDSTIELCVGDPEIKKTSFRGDSGGPLVCNKVAQGIVSYGRNNGMPPRACTKVSSFVHWIKKTMKRY | the variants maintained high protease activity even in the presence of inhibitors
12 | granzyme B variant K44F, L46I, K155P, K172L, S175I, K200R (protein) IIGGHEAKPHSRPYMAYLMIWDQFSIKRCGGFLIRDDFVLTAAHCWGSSINVTLGAHNIKEQEPTQQFIPVKRPIPHPAYNPKNFSNDIMLLQLERKAKRTRAVQPLRLPSNKAQVKPGQTCSVAGWGQTAPLGPHSHTLQEVKMTVQEDRLCEIDLRHYYDSTIELCVGDPEIKKTSFRGDSGGPLVCNKVAQGIVSYGRNNGMPPRACTKVSSFVHWIKKTMKRY | the variants maintained high protease activity even in the presence of inhibitors
